Measurements taken from the supplement of paper PMC10724198.
± gives the standard deviation of the averaged measurements.

System: Saccharomyces cerevisiae
Experiment: protein stability index of tFT-peptide fusion (C-terminal peptide) (PSI (0-1 scale)); higher = more stable (slower turnover)
Settings: genetic background: wild type; temperature: 30 C
Protocol: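 Multiplexed protein stability (MPS) profiling in S. cerevisiae. Random 12-aa peptides (tFT-X12 library) are fused to the C-terminus of a sfGFP-mCherry tandem fluorescent timer, after mCherry and a GGGS linker. Cells are FACS-sorted into 8 mCherry/sfGFP bins and deep-sequenced. The protein stability index (PSI) is the read-weighted bin average, scaled from 0 (unstable) to 1 (stable). Only peptides with >10 reads are reported; cells were grown at 30 °C in SC-His with glucose.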
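Also: PSI is a weighted mean of sequencing reads over stability bins, variants kept only with over 10 reads, mCherry proximal and sfGFP distal, peptide attached via GGGS linker.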

Sequence | protein stability index
GGVGRGGIRVMG | 0.629 ± 0.062
GGVGRSWQEVGG | 0.72 ± 0.025
GGVGVYSVMVGG | 0.575 ± 0.015
GGVLERARRRGG | 0.708 ± 0.2
GGVLERSRRRGG | 0.741 ± 0.17
GGVLSAGSWSGG | 0.665 ± 0.019
GGVNRPRKSTAT | 0.6977 ± 0.0063
GGVSRRVNGREA | 0.708 ± 0.008
GGWGCWQAGGLT | 0.7444 ± 0.0016
GGWGGGGLGGAF | 0.741 ± 0.037
GGWPREVVGRGG | 0.671 ± 0.09
GGWSGRFVTVGR | 0.713 ± 0.066
GGWWGRAGENTR | 0.729 ± 0.075
GGWWGWAGENTR | 0.7 ± 0.048
GGYATYWVGVRL | 0.697 ± 0.036
GHGGSKIYCLVD | 0.637 ± 0.062
GHLRPFPPPLLP | 0.748 ± 0.089
GIFRTRGFPPVG | 0.694 ± 0.088
GIGLSVGDVLGC | 0.73 ± 0.037
GIIDGGTISRNK | 0.692 ± 0.013
GIISLTPRGCTR | 0.92 ± 0.11
GINEGRAISDDW | 0.725 ± 0.021
GIPEFGYLYLVT | 0.613 ± 0.017
GIPYGWLLCFPR | 0.813 ± 0.021
GIRAEPSGGQAE | 0.692 ± 0.057

Sequence | protein stability index
GISASYTASSSG | 0.642 ± 0.067
GISPFYTALSGF | 0.754 ± 0.03
GIVFRGVVTWLL | 0.6 ± 0.0085
GIVRGFGGGGEE | 0.662 ± 0.026
GKAGGNREGTGT | 0.689 ± 0.048
GKCTGSAEMRPQ | 0.627 ± 0.079
GKGEERGVATRT | 0.657 ± 0.0076
GKIEVNTRIPGG | 0.646 ± 0.078
GKNKKSKTLIKQ | 0.669 ± 0.029
GKRAKKKNTKRY | 0.662 ± 0.14
GKRHICFNHSGE | 0.6966 ± 0.0045
GKRKKERGGGER | 0.711 ± 0.093
GKRRCRREVERK | 0.695 ± 0.018
GKRTGRKKRRKR | 0.638 ± 0.095
GKRWPSINKGPV | 0.6851 ± 0.0051
GKVGGQGGKGVV | 0.765 ± 0.13
GLACWALLTCNR | 0.726 ± 0.015
GLCPALQFPLHE | 0.68 ± 0.024
GLCRRLDRQLAN | 0.6787 ± 0.0026
GLFAPVGLGFGL | 0.724 ± 0.012
GLGACMVNELLG | 0.648 ± 0.018
GLGGGVGGWLVV | 0.705 ± 0.041
GLGGRFSWVDGV | 0.756 ± 0.012
GLGGRVWSDMGG | 0.745 ± 0.11
GLGTIYGGEWWW | 0.759 ± 0.085

Sequence | protein stability index
GLGWGGVGVAGV | 0.705 ± 0.076
GLKVVENWIECA | 0.555 ± 0.044
GLNPPDPYPVSF | 0.754 ± 0.11
GLPLPPPHPFSL | 0.7793 ± 0.0021
GLPPPAPRRPDL | 0.664 ± 0.0077
GLPSSYLSALFR | 0.708 ± 0.029
GLQFRPFCVLEL | 0.634 ± 0.013
GLSPPLCSTPSR | 0.736 ± 0.0092
GLSWTVDDGHGG | 0.683 ± 0.039
GLVGGLCIGRLV | 0.672 ± 0.024
GLVVCDGGGVGC | 0.684 ± 0.14
GLWIRAEISLVS | 0.575 ± 0.016
GLYCDDSYPRPH | 0.666 ± 0.1
GMCWTEGNTAVL | 0.697 ± 0.06
GMDGRGGGGSVV | 0.723 ± 0.039
GMLSIHWNIGGT | 0.725 ± 0.014
GMRGGGGWCRGW | 0.671 ± 0.043
GMRILRLIHVIP | 0.571 ± 0.031
GMSRLFTYRAAS | 0.72 ± 0.0091
GMTYWFCSFPFF | 0.686 ± 0.04
GMVTCTSPRCHK | 0.694 ± 0.016
GNFDRVSMTKFR | 0.73 ± 0.035
GNSGAFTPSTQW | 0.687 ± 0.055
GPAPAPPALSSC | 0.745 ± 0.0089
GPCFPRRSAPSD | 0.67 ± 0.046

Sequence | protein stability index
GPCSSMFGLRYT | 0.672 ± 0.033
GPDSSYLITPRR | 0.755 ± 0.065
GPEAVARIFDDE | 0.708 ± 0.0095
GPFHILSSATRP | 0.705 ± 0.054
GPGGVGVTSGGK | 0.679 ± 0.062
GPGSCPVRLCGF | 0.661 ± 0.0074
GPGVFGGFRTEK | 0.648 ± 0.056
GPLVGGDGRWVG | 0.706 ± 0.011
GPPPAWALCYPL | 0.601 ± 0.023
GPPPLRLWPLPV | 0.618 ± 0.079
GPPPPLFAPWPF | 0.656 ± 0.027
GPPRDLARKAGL | 0.708 ± 0.065
GPRGGRLSWAPG | 0.62172 ± 0.00044
GPRVLCNCHLRD | 0.688 ± 0.0083
GPSATPPGPGLR | 0.792 ± 0.052
GPSVWRPSESLV | 0.748 ± 0.03
GPTPPRSPPAVS | 0.646 ± 0.055
GPTPSVKGDRDT | 0.632 ± 0.044
GPVAYSMDILVE | 0.66 ± 0.058
GPVHVRGVGFGF | 0.73 ± 0.02
GPVRIDSPFKSA | 0.733 ± 0.017
GPVVAGRLWLWV | 0.641 ± 0.046
GQCHYSSFPVRQ | 0.732 ± 0.011
